Laboratory results as given in US20240251767A1 (LEVERAGEN, published 2024).
Read-outs that look alike come from different tables or passages of the source.

Experiments:
[1] = biological target: T1, SARS-Cov2 Spike Active Trimer SAT (R&D Systems; Catalog No. 10549-CV) (SARS-CoV2, UniProt P0DTC2 16-1211)
[2] = biological target: T1, SARS-Cov2 Spike Active Trimer SAT (R&D …); assay: SPR (Carterra)
[3] = biological target: T1, SARS-Cov2 Spike Active Trimer SAT (R&D …); assay: ELISA, serially diluted purified Nb-Fc on SAT antigen
[4] = biological target: T1, SARS-Cov2 Spike Active Trimer SAT (R&D …)

B1: MS329_5 Nb-human Fc fusion (Fc fusion, not shown: a dimerising Fc or GST)
VH: EVQLQQSGPELVKPGASVKMSCKASGYTFTDYYIKWEKQSHGKSLEWIGDINPKNGETFYNQQFKGKATLTVDKSSSTAYMQLNSLTSEDSAVYYCARKEYGDYGYAVDYWGQGTSVTVSS
notes: also called LVGN-S3205; LVGN-53205
Kd [1]: 1.06 nM
koff [1]: 0.000143 s⁻¹
kon [1]: 135000 M⁻¹ s⁻¹
Kd [2]: 3.17 nM
EC50 [3]: 0.024 nM
Kd [4]: 1.21 nM

B2: M2S521_378 Nb-human Fc fusion (Fc fusion, not shown: a dimerising Fc or GST)
VH: EVQLQQSGPELVKPGASVKISCKASGYTFTDYYMKWVKQSHGKSLEWIGDINPKNGGTNYNQKFKDKATLTVDKSSSTAYMELRSLTSEDSAVYYCARLEDGYYGYAIDYWSQGTSVTVSS
notes: also called LVGN-S231378; LVGN-S521378
EC50 [3]: 0.081 nM
